The results in this text go back to US20090092614A1 (Biogen, published 2009).

Read-outs that look alike come from different tables or passages of the source. Where only a bound is given, the exact number is not on record here.

The target of test [1] is T1, human INSR(28-956)-His10 (human, UniProt P06213 28-956).
T1 construct: range 28-956; Bought (R&D Systems); also called rh-INSR (R&D 1544-IR); INSR-His10
Nature of the test: ELISA, rh-INSR coated.
Method: (§1) ELISA assays were performed to determine specific binding of the Fab fragment antibodies to soluble IGF-1R over the insulin receptor. […] Color development was stopped by addition of 4NH₂SO₄ and optical density is measured at 450 nm using a Molecular Devices plate reader and binding curves are generated.

In test [2] the target is human IGF-1R (full length, on cells) (human, UniProt P08069 31-740; P08069 741-1367). In words: cell-based or functional assay.
The target of test [3] is T2, human IGF-1R(1-903)-Fc (human, UniProt P08069 31-933).
T2 construct: Made by Biogen Idec; also called hIGF-1R-Fc; IGF-1R-Fc
In words: blocking ELISA, competitor 320 nM IGF-1. (In general: An ELISA detects its analyte on a solid surface through an enzyme-linked reagent.)

Test [4] concerns the target T3, sIGF-1R(1-903) (human, UniProt P08069 31-933).
T3 construct: also called soluble recombinant human IGF-1R ectodomain
Nature of the test: ITC, 5 °C. On the technique in general: In ITC the heat of successive injections is recorded.
Method: (§2) These protein solutions were adjusted to the concentrations listed above by dialyzing in PBS. ITC experiments were performed on an ITC200 microcalorimeter (MicroCal, LLC). […] A four minute equilibration period was used between all injections with an initial delay of 60 seconds. […] The lower limit of the protein concentrations capable of generating sufficient signal by calorimetry to measure a change in heat was ˜2-4 micromolar protein.

Test [5] concerns the target T2, human IGF-1R(1-903)-Fc. Nature of the test: blocking ELISA, competitor 640 nM IGF-2.
Test [6] concerns the target T3, sIGF-1R(1-903). In words: ITC, 15 °C.
Method: as §2
Test [7] deals with T3, sIGF-1R(1-903). In words: ITC, 25 °C.
Method: as §2
For test [8], the target named is T3, sIGF-1R(1-903). Nature of the test: ITC, 37 °C.
Method: as §2
Test [9] has as its target T4, hIGF-1R-Fc mutant SD015 (human, UniProt P08069 31-933).
T4 construct: Positions count without the signal peptide; also called H464E; not shown: human IgG1 Fc tag
In words: SPR, Fab over captured mutant. A general note: SPR reads the build-up and loss of mass on a sensor chip optically.

Test [10] has as its target T5, human IGF-1R(1-902)-His10 (human, UniProt P08069 31-932).
T5 construct: Bought (R&D Systems); also called hIGF-1R-His10; IGF-1R-His
In words: ELISA on plate-coated rh-IGF-1R, goat anti-human kappa-HRPO.
Method: as §1

In test [11] the target is T1, human INSR(28-956)-His10. In words: ELISA on plate-coated rh-INSR, goat anti-human kappa-HRPO.
The target of a further test is T6, hIGF-1R-Fc mutant SD113 (human, UniProt P08069 31-933).
T6 construct: build as m36 with the substitutions; also called E570A I571T
In words: KD grade of mutant hIGF-1R-Fc; S = binding to antibody was ablated by mutation.

Another test deals with T7, hIGF-1R-Fc mutant SD110 (human, UniProt P08069 31-933).
T7 construct: build as m36 with the substitution; also called E533H; not shown: C-terminal human IgG1 Fc tag
The test is described as above.

For the next test, the target named is T8, hIGF-1R-Fc mutant SD108 (human, UniProt P08069 31-933).
T8 construct: build as m36 with the substitution; also called H480E; not shown: C-terminal human IgG1-Fc tag and its junction
The description is as above.

A further test concerns the target T9, hIGF-1R-Fc mutant SD102 (human, UniProt P08069 31-933).
T9 construct: build as m36 with the substitutions; also called E459A S460A
The test is described as above.

A further test has as its target T10, hIGF-1R-Fc mutant SD104 (human, UniProt P08069 31-933).
T10 construct: build as m36 with the substitution; also called H464A; not shown: C-terminal human IgG1-Fc tag and its junction
The test is described as above.

A further test has as its target T11, hIGF-1R-Fc mutant SD109 (human, UniProt P08069 31-933).
T11 construct: build as m36 with the substitutions; also called Y482A R483W; not shown: C-terminal human IgG1-Fc tag and its junction
The description is as above.

The target in a further test is T12, hIGF-1R-Fc mutant SD103 (human, UniProt P08069 31-933).
T12 construct: build as m36 with the substitutions; also called D461A V462T
Described as above.

In test [12] the target is T4, hIGF-1R-Fc mutant SD015. The description is as above.
Test [13] deals with T2, human IGF-1R(1-903)-Fc. In words: competition ELISA: biotinylated hIGF-1R-Fc on streptavidin plate, antibody titrated in 320 nM human IGF-1 His (blocked ligand), anti-His-HRP detection.
The target in test [14] is T2, human IGF-1R(1-903)-Fc. In words: competition ELISA: biotinylated hIGF-1R-Fc on streptavidin plate, M14-G11 titrated in 320 nM human IGF-1 His (blocked ligand).
Test [15] concerns the target T2, human IGF-1R(1-903)-Fc. In words: ELISA on plate-coated soluble IGF-1R-Fc, goat anti-human kappa-HRP.
Method: (§3) The absorbance was measured at 450 nm, background 540 nm for TMB using the Molecular Devices plate reader. Data was analyzed using the SOFTMAX PRO software package version 4.3 LS (Molecular Devices Corp.).
The target of test [16] is T2, human IGF-1R(1-903)-Fc. In words: competition ELISA: biotinylated hIGF-1R-Fc on streptavidin plate, M14-G11 titrated in 20 nM human IGF-1 His (blocked ligand).
Test [17] concerns the target T2, human IGF-1R(1-903)-Fc. In words: ELISA on plate-coated soluble IGF-1R-Fc, goat anti-human kappa-HRP. This is another data set of the same source.
Method: as §3
The target of a further test is T13, hIGF-1R-Fc mutant SD012 (human, UniProt P08069 31-933).
T13 construct: Positions count without the 30-residue signal peptide; also called E303G; not shown: human IgG1 Fc tag
In words: SPR.

The target in another test is T14, hIGF-1R-Fc mutant SD008 (human, UniProt P08069 31-933).
T14 construct: Positions count without the signal peptide; also called S257F; not shown: human IgG1 Fc tag
Nature of the test: SPR.

T1 sequence (P06213 other isoform, or with tags, fused parts or gaps limits assumed): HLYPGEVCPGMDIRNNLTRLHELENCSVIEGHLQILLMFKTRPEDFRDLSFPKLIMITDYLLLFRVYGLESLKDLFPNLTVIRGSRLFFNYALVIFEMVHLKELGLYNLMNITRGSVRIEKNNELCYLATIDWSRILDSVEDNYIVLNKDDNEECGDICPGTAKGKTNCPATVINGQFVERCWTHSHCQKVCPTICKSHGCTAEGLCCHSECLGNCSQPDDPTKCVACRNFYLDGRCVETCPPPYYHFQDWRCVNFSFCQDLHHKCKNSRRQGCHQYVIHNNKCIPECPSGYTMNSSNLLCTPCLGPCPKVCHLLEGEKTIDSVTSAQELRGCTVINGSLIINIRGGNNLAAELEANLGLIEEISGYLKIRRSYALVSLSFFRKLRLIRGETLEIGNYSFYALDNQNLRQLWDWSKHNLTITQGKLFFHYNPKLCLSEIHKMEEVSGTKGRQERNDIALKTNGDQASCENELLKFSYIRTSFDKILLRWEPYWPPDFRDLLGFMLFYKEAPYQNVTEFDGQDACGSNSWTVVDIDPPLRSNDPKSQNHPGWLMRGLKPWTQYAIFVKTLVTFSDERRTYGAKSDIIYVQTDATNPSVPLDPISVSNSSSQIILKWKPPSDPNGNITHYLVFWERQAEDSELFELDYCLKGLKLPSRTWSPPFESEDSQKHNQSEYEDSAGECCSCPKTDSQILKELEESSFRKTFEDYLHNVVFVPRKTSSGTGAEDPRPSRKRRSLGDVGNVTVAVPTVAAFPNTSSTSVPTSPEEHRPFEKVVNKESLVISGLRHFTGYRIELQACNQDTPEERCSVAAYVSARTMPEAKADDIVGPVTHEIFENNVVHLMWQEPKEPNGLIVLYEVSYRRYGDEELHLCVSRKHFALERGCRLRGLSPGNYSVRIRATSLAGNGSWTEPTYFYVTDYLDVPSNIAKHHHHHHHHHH
T2 sequence (P08069 31-933): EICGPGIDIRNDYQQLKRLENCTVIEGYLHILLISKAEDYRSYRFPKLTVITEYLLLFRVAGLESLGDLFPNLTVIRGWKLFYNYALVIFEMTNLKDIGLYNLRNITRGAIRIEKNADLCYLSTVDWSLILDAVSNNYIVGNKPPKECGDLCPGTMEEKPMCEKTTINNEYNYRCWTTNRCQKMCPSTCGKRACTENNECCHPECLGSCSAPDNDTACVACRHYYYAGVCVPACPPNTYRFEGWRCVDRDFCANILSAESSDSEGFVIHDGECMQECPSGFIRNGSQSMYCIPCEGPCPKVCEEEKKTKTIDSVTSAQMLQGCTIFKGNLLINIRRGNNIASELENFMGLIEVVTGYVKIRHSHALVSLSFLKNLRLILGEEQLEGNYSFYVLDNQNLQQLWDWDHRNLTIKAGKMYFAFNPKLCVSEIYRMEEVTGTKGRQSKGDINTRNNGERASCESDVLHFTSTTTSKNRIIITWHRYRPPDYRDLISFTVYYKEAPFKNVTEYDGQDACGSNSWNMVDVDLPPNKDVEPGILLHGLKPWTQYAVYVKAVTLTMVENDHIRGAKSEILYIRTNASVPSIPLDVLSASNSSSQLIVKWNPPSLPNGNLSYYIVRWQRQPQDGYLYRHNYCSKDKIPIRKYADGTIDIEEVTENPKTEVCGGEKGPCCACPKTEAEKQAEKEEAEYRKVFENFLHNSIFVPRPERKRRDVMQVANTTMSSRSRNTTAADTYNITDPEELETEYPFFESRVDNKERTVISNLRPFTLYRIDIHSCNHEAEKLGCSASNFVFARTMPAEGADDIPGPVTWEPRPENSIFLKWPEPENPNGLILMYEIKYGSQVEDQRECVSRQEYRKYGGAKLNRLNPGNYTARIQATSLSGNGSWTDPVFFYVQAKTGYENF
T3 sequence (P08069 31-933): as above
T4 sequence (P08069 other isoform, or with tags, fused parts or gaps mutant): as the sequence (P08069 31-933) above, with H464E counted along it
T7 sequence (P08069 other isoform, or with tags, fused parts or gaps mutant limits assumed): as the sequence (P08069 31-933) above, with E533H counted along it

B1: M12-E01 Fab (Fab, V domains shown)
VH: EVQLLESGGGLVQPGGSLRLSCAASGFTFSPYSMLWVRQAPGKGLEWVSSIGSSGGSTRYADSVKGRFTISRDNSKNTLYLQMNSLRAEDTAMYYCARVRGILHYDILIGRNLYYYYMDVWGKGTTVTVSS
VL: QYELTQPPSVSEAPRQRVTISCSGSSSNIGNNAINWYQQLPGKPPKLLIYYDDLLPSGVSDRFSGSKSGTSGSLAISGLQSEDEADYYCAAWDDNLNGVIFGGGTKLTVL
notes: Human lambda Fab from a phage library
Consider B1, for which the binding result with human INSR(28-956)-His10 [1] was “no binding (tested: 2 µM)”.

B2: M13-C06.G4.P.agly (antibody, human IgG4 S228P, kappa, V domains shown)
VH: EVQLLESGGGLVQPGGSLRLSCAASGFTFSIYRMQWVRQAPGKGLEWVSGISPSGGTTWYADSVKGRFTISRDNSKNTLYLQMNSLRAEDTAVYYCARWSGGSGYAFDIWGQGTMVTVSS
VL: DIQMTQSPLSLSASVGDRVTITCQASRDIRNYLNWYQQKPGKAPKLLIYDASSLQTGVPSRFGGSGSGTDFSFTIGSLQPEDIATYYCQQFDSLPHTFGQGTKLEIKR
notes: Aglycosylated human IgG4 (S228P, T299A, EU numbering), kappa; also called M13-C06_Ab; Eu-C06
B2: the “Inhibition of IGF-1 stimulated phosphorylation of IGF-1R (IC50 nM)” value in test [2] was < 0.13 nM. Further, in [2], the “Inhibition of IGF-2 stimulated phosphorylation of IGF-1R (IC50 nM)” value was < 0.63 nM. Besides, the “% IGF-1 inhibition upon antibody saturation” value with human IGF-1R(1-903)-Fc [3] was 25%. For the same molecule, the “stoichiometry of binding (N)” value in the test with sIGF-1R(1-903) [4] was determined as 0.89; with sIGF-1R(1-903) [6], 0.98; in the test with sIGF-1R(1-903) [7] it was 0.98; with sIGF-1R(1-903) [8], 0.97. Also, the “ΔH°” value is -11.3 kcal/mol in the test with sIGF-1R(1-903) [4], -14.4 kcal/mol in the test with sIGF-1R(1-903) [6], -20.1 kcal/mol with sIGF-1R(1-903) [7] and -29.2 kcal/mol with sIGF-1R(1-903) [8]. For the same molecule, in the test with human IGF-1R(1-903)-Fc [5], the “% IGF-2 inhibition upon antibody saturation” value was found to be 16%.

B3: M13-C06 Fab (Fab, V domains shown)
VH: B2 VH
VL: DIQMTQSPLSLSASVGDRVTITCQASRDIRNYLNWYQQKPGKAPKLLIYDASSLQTGVPSRFGGSGSGTDFSFTIGSLQPEDIATYYCQQFDSLPHTFGQGTKLEIK
notes: Human kappa Fab from a phage library
In the case of B3, the “Biacore Relative RUmax” value with hIGF-1R-Fc mutant SD015 [9] was found to be 0.04.

B4: M14-B01 Fab (Fab, V domains shown)
VH: EVQLLESGGGLVQPGGSLRLSCAASGFTFSNYHMAWVRQAPGKGLEWVSVISPTGGRTTYADSVKGRFTISRDNSKNTLYLQMNSLRAEDTATYYCARAGYSYGYGYFDYWGQGTLVTVSS
VL: DIQMTQFPATLSVSPGERATLSCRASQSVMRNLAWYQQKPGQPPRLLIYGASKRATGIPARFSGSGSGTAFTLTISNLEPEDFAVYYCHQRSTWPLGTFGPGTKLEAK
notes: as for B3
The term EC50 (read off the curve) denotes the concentration at which the effect is half-maximal. High values mean lower potency in that assay, low ones higher potency in that assay. As to B4, the half-maximal effective concentration (EC50 (read off the curve)) in test [10] was ~5 nM. The binding result with human INSR(28-956)-His10 [11] is “no binding”.

B5: M14-C03.G4.P.agly (antibody, human IgG4 S228P, kappa, V domains shown)
VH: EVQLLESGGGLVQPGGSLRLSCAASGFTFSKYMMSWVRQAPGKGLEWVSYISPSGGLTWYADSVKGRFTISRDNSKNTLYLQMNSLRAEDTAVYYCARDGARGYGMDVWGQGTTVTVSS
VL: DIQMTQSPATLSLSPGERATLSCRASQSVSSYLAWYQQKPGQAPRLLIYDASNRATGIPARFSGSGSGTDFTLTISSLEPEDFAVYYCQQRSNWPPEVTFGPGTKVDIKR
notes: Aglycosylated human IgG4 (S228P, T299A), kappa; also called M14-C03_Ab
Regarding B5, the “% IGF-1 inhibition upon antibody saturation” value with human IGF-1R(1-903)-Fc [3] was determined as 19%. Also, the “% IGF-2 inhibition upon antibody saturation” value with human IGF-1R(1-903)-Fc [5] worked out at 21%. Also, the binding result with hIGF-1R-Fc mutant SD113, in the test with hIGF-1R-Fc mutant SD110, in the test with hIGF-1R-Fc mutant SD108, with hIGF-1R-Fc mutant SD102, in the test with hIGF-1R-Fc mutant SD104 and with hIGF-1R-Fc mutant SD109 was “no binding” each time. In addition, the binding result with hIGF-1R-Fc mutant SD103 and in the test with hIGF-1R-Fc mutant SD015 [12] was “no binding” in each case.

B6: M14-G11.G4.P.agly (antibody, human IgG4 S228P, kappa, V domains shown)
VH: EVQLLESGGGLVQPGGSLRLSCAASGFTFSNYPMYWVRQAPGKGLEWVSRISSSGGRTVYADSVKGRFTISRDNSKNTLYLQMNSLRAEDTAVYYCARDRWSRSAAEYGLGGYWGQGTLVTVSS
VL: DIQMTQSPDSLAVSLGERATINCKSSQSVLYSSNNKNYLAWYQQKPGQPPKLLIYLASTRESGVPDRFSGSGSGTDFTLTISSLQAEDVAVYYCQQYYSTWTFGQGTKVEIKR
notes: Aglycosylated human IgG4 (S228P, T299A), kappa; also called M14-G11_Ab; Biotin-G11
For the molecule B6, the “IC50 (read off the curve)” value with human IGF-1R(1-903)-Fc [13] is ~6 nM; in the test with human IGF-1R(1-903)-Fc [14] it was ~6 nM; with human IGF-1R(1-903)-Fc [16] it was ~2 nM. Besides, the 50% effective concentration (EC50 (read off the curve)) in the test with human IGF-1R(1-903)-Fc [15] was ~0.05 nM. Further, the “% IGF-1 inhibition upon antibody saturation” value in the test with human IGF-1R(1-903)-Fc [3] is 1%. The “stoichiometry of binding (N)” value in the test with sIGF-1R(1-903) [4] worked out at 0.9; in the test with sIGF-1R(1-903) [7], 0.91; with sIGF-1R(1-903) [8] it was 0.7. Besides, the “ΔH°” value with sIGF-1R(1-903) [4] is -6.7 kcal/mol; with sIGF-1R(1-903) [7], -26.6 kcal/mol; with sIGF-1R(1-903) [8] it was -39.5 kcal/mol. The “% IGF-2 inhibition upon antibody saturation” value in the test with human IGF-1R(1-903)-Fc [5] is 1%.

B7: M14-G11.G4.P (antibody, human IgG4, V domains shown)
VH: B6 VH
VL: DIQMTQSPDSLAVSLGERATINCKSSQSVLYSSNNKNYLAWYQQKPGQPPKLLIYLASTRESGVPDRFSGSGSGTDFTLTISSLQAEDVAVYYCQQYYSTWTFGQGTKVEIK
notes: Full-length human IgG4.P, kappa; also called M14.G11.P; G4 version of M14-G11
Turning to B7, the half-maximal effective concentration (EC50 (read off the curve)) with human IGF-1R(1-903)-Fc [17] was ~0.05 nM.

B8: M14-G11 Fab (Fab, V domains shown)
VH: B6 VH
VL: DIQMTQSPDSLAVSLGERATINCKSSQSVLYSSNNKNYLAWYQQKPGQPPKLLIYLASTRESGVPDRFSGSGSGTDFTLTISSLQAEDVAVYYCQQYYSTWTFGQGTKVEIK
notes: Human kappa Fab (phage library, or papain digest of the full-length antibody)
B8: the “fold loss in affinity against wild type” value with hIGF-1R-Fc mutant SD012 and with hIGF-1R-Fc mutant SD008 was ~3 fold throughout.

B9: M12-G04 Fab (Fab, V domains shown)
VH: EVQLLESGGGLVQPGGSLRLSCAASGFTFSKYTMHWVRQAPGKGLEWVSSIVSSGGWTDYADSVKGRFTISRDNSKNTLYLQMNSLRAEDTAVYYCARDRSIAAAGTGWSVSFVDWFDPWGQGTLVTVSS
VL: DIQMTQSPLSLSASVGDRVTITCRASQSINGYLNWYQQKPGKAPNLLIYATSSLQSGVPSRFSGSGSGTDFTLTISSLQPEDFATYYCQQSYSTPPYTFGQGTKLEIK
notes: as for B3
For the molecule B9, in the test with human INSR(28-956)-His10 [11], the binding result is “no binding (tested: about 5000 nM (baseline markers overlap))”.
